Measured values taken from the RNAGym collection of RNA variant scans (doi:10.1073/pnas.2313332121).

B1: TPR t1 (parent)
chain: GACCAAUCUGCCCUCAGAGCUCGAGAACAUCUUCGGAUGCAGAGGAGGCAGGCUUCGGUGGCGCGAUAGCGCCAACGUCCUCAACCUCCAAUGCAUCCCACCACAUGAUGAUGCCUGAAGAGCCUUGGUUUUUUG

Variants of: B1
Test: polymerase ribozyme fitness, log enrichment relative to wild type (log ratio); higher = more active; in vitro selection for triplet polymerase activity
How it was run: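 After PCR construction and transcription, each subunit's mutant library from a heterodimeric triplet polymerase ribozyme was annealed with a biotinylated primer, the partner subunit and triplets. Incubation was frozen, at −7 °C, and extended constructs were gel-excised, bound to streptavidin beads and amplified by RT-PCR, in one selection round done in triplicate. Fitness is the logarithm of a genotype's enrichment divided by that of the wild type, from inverse-variance-weighted replicate averages of Illumina-sequenced inputs and outputs. The base of the logarithm is 2, and genotypes needed ≥10 input reads and ≥1 read per output.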

Variant	polymerase ribozyme fitness (log ratio)
G63U A119G	-0.465
G63U A119U	-0.897
G63U C114A U125A	-4.22
C64G U81A G120C	-6.58
G63U A108G	-3.13
A68U U109A U129G	-7.47
G63U C114A G122U	-3.44
G63A U132A	-0.756
C64U C85U	-1.42
G63C A121C	0.84
G63C A121G	0.727
G69U A118G	-0.0784
A66C A105U A108G C124A	-7.55
G69U C102U A121U	-3.9
G69A A95C G113A	-3.61
C64U C73U G117C	-3.17
C64G C70A G93A C101A G120A G127A U131G	-6.32
G63A C124A	0.45
G63A C124G	0.684
G63C C86U U112A	0.23
G63U A90C C101A	-4.63

Variant	polymerase ribozyme fitness (log ratio)
G69U U87C C104A	-0.553
G69U U78G A91C U92G	-0.788
G63A C79A	-3.48
G63A C97A	-6.64
G69U A111G	1.89
G69A U92A	-6.38
G63A A121C	0.832
G63C U87A U130C G135U	-1.49
G69U C104A G113C	-1.8
G69C U106A	-1.14
A66G G117C C124U U132A	-6.03
G63A C97U C115A	-0.416
G63C U81G G120A	-3.19
C64U C104A	-1.31
G63U U92G G93C C98G A121G	-5.9
G63U U133G	-1.94
A68G U132A	-3.13
G69U U78G C79A U116A U129G	-5.04
G69C C86A C94U C114U	-6.26
A66U G93A A121G	0.349
A68U G120A	-3.93

Variant	polymerase ribozyme fitness (log ratio)
A68U G120C	-5.33
G69A G135A	-3.3
G69U C88A G127C U131A	-2.72
A66U G128A	-3.15
A66U C70U C88G	-2.66
A66G U96C A118U	-1.1
G69U G120A	1.25
G69U G120C	1.2
G69U C99A	-3.23
G69U C99G	-6.24
C64U U81A	-0.925
G69U U78A A91U A111C	-0.0328
G63C A111U	-3.26
A66G C86G	-1.77
A68G A100U U133A	-3.27
C64A C86A U112G	-6.59
G65C C101U	-4.71
C64U C104A G120A	-0.809
A68G C115U	-3.75
A68U A121U	-6.36
A68U A121G	-6.65

Variant	polymerase ribozyme fitness (log ratio)
G63U G128U	-2.6
A66G C72U G107A C123A	-6.86
C64U A118G U129G	-1.07
G63A U87A	-1.03
C64U A111C C115A G127A	-4.2
G63A C79A G128C	-4.78
G63A U78G U112A	-2.03
A66U G69U C88G C99A A119G	-5.79
G69C G120A	-0.926
G63U A105G	-3.13
G63U U92G G122A	-5.14
G63C A75U U87A	-0.774
G69C A95G	-1.13
C64U C101A G110C	-7.07
G69C G128C	-3.85
G63C G77C U129C	-3.13
G69U C85A	-1.08
C64U C82U	-2.09
C64A C88G G110U	-6.03
G63A C88U	-1.46
